# Measurements reported in article PMC5220088.
# Where no end group is shown, it is not given here. [ ]: non-standard residue; d: D form. The star is where a group is joined. EDDnp = O=[N+]([O-])c1ccc(NCCN*)c([N+](=O)[O-])c1; 2Abz = Nc1ccccc1C(=O)O
# Biological target: protease isolated from Eupenicillium javanicum (metalloprotease, 30 kDa) (Eupenicillium javanicum)
row,"KM of the hydrolysis of the FRET peptide by the purified protease (Michaelis-Menten, pH 6.0, 45°C)",Binder
1,0.007 mM,[2Abz]KLRYSKQ-EDDnp [Abz-KLRYSKQ-EDDnp]
2,0.003 mM,[2Abz]KLRSYKQ-EDDnp [Abz-KLRSYKQ-EDDnp]
3,0.003 mM,[2Abz]KLRSIKQ-EDDnp [Abz-KLRSIKQ-EDDnp]

# Biological target: protease isolated from Eupenicillium javanicum (metalloprotease, 30 kDa) (Eupenicillium javanicum)
# Remark: another data set of the same source
row,"KM of the hydrolysis of the FRET peptide by the purified protease (Michaelis-Menten, pH 6.0, 45°C)",Binder
1,0.012 mM,[2Abz]KFRSSKQ-EDDnp [Abz-KFRSSKQ-EDDnp]
2,0.01 mM,[2Abz]VLRSSKQ-EDDnp [Abz-VLRSSKQ-EDDnp]
3,0.004 mM,[2Abz]KLQSSKQ-EDDnp [Abz-KLQSSKQ-EDDnp]
